Data published in patent publication US20130089548.
Changes are numbered by the printed parent chain.

Key:
[1] = biological target: T1, CDO-IC-D1153N-D1164N (UniProt Q32MD9)
T1 sequence: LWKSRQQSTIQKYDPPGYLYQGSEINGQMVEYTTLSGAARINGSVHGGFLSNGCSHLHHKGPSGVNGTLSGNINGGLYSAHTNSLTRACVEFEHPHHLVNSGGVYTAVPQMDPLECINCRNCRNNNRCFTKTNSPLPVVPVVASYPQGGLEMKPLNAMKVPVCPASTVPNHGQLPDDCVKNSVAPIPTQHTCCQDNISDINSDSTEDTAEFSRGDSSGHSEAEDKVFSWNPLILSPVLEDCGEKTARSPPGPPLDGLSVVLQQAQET

[2] = biological target: T2, CDO intracellular domain wild type (CDO-IC wt), in vitro-translated (UniProt Q32MD9)
T2 sequence: T1 sequence with N170D, N181D

[3] = biological target: T3, CDO-IC with Asp1178 to Asn mutation (UniProt Q32MD9)
T3 sequence: T1 sequence with N170D, N181D, D195N

[4] = biological target: T4, CDO-IC-D1153N (UniProt Q32MD9)
T4 sequence: T1 sequence with N181D

In the case of Recombinant purified active caspase-3, the “in vitro cleavage of in vitro-translated CDO-IC by purified active caspase-3 (autoradiograph, FIG. 5)” value (shortened to “in vitro cleavage”) [1] is reported as “Asp^1153/Asp^1164 to Asn double mutation almost completely suppressed caspase-3 cleavage”, the “in vitro cleavage” value [2] is reported as “CDO intracellular domain (CDO-IC, amino acids 985 to 1250) was cleaved in vitro when incubated with purified active caspase-3” and the “in vitro cleavage” value [3] is reported as “the Asp^1178 to Asn mutation had no effect on CDO-IC cleavage”. For the same substance, the “in vitro cleavage” value [4] was “mutation of Asp^1153 to Asn (CDO-IC D1153N) strongly inhibited cleavage by caspase-3”.
